In publication PMC4165486 (Vaccine, 2011):

What was measured:
AUC [1] = target: the molecule itself; experiment: AUC
AUC [2] = target: the molecule itself; experiment: AUC; remark: listed apart in the source

B1: poly-epitope P181 (P90-DEG-P77-DEG-P27) (peptide)
chain: TKKLNKELSEGNKELEKLEKNIKELEETNNTLENDIKVEKLKKYNNEISSLKKELDILNEKMGKCTKKRNVEEELHSLRKNYNIINEEIEEIT
modifications: derivatized diethylene glycol (DEG) linker inserted between P90 and P77 and between P77 and P27
AUC [1]
  Kd: 115 µM
AUC [2]
  stoichiometry N: 2
